Percent of uncomplexed protein (of the starting concentration) and uncomplexed protein as a fraction of the starting concentration (fraction of the starting concentration) data for two substances are collected here from patent US20140219992A1.

Experiment [1] addresses serum-derived protein (Zucker rat). Kind of experiment: solid phase capture ELISA of Zucker rat skin perfusate, 2 minutes after perfusion, 1 mM Ca^2+.
The target is the same in experiment [2]. Kind of experiment: solid phase capture ELISA of Zucker rat skin perfusate, 60 minutes after perfusion, 10 mM Ca^2+.
Experiment [3] shares this target. The experiment is described as follows: solid phase capture ELISA of Zucker rat skin perfusate, 90 minutes after perfusion, 10 mM Ca^2+.
The target is the same in experiment [4]. The experiment is described as follows: solid phase capture ELISA of Zucker rat skin perfusate, 2 minutes after perfusion, 10 mM Ca^2+.
The target is the same in experiment [5]. The experiment is described as follows: solid phase capture ELISA of Zucker rat skin perfusate, 30 minutes after perfusion, 1 mM Ca^2+.
For experiment [6] the target is unchanged. The experiment is described as follows: solid phase capture ELISA of Zucker rat skin perfusate, 30 minutes after perfusion, 10 mM Ca^2+.
Experiment [7] has the same target. Kind of experiment: solid phase capture ELISA of Zucker rat skin perfusate, 90 minutes after perfusion, 1 mM Ca^2+.
For experiment [8] the target is unchanged. Kind of experiment: solid phase capture ELISA of Zucker rat skin perfusate, 30 minutes after start of perfusion, 1 mM Ca^2+.

Sequence of wild-type human matrix metalloprotease 1 (hMMP-1), purified and trypsin-activated (P03956 100-469): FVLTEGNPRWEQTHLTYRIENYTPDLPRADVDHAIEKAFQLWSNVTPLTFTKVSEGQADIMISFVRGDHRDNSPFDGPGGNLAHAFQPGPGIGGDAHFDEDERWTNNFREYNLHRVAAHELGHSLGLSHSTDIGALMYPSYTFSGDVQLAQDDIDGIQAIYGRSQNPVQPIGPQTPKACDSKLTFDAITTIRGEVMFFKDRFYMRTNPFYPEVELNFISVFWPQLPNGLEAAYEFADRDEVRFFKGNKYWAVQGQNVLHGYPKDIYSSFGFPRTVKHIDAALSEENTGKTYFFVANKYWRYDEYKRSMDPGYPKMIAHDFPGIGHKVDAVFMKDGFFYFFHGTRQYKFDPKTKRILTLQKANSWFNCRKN

As to “MMP-1 mutant GVSK (G159V/S208K), purified and trypsin-activated (from UniProt P03956 100-469) (enzyme)”, the percent of uncomplexed protein (of the starting concentration) was found to be 45% in experiment [1]; 30% in experiment [2]; 13% in experiment [3]; 90% in experiment [4]; 50% in experiment [6]. Further, in experiment [5], the uncomplexed protein as a fraction of the starting concentration (fraction of the starting concentration) is below 0.1.

For the substance “wild-type human matrix metalloprotease 1 (hMMP-1), purified and trypsin-activated (from UniProt P03956 100-469) (enzyme)”, the uncomplexed protein as a fraction of the starting concentration (fraction of the starting concentration) in experiment [7] amounted to 0.33; in experiment [8] it was 0.5. This substance also had a percent of uncomplexed protein (of the starting concentration) in experiment [1] of 90%.
